These results are taken from US20260258115A1 (MAPP BIOPHARMACEUTICAL, published 2026).

In one assay the target is RSV F on RSV-A2 virus (Respiratory syncytial virus, RSV-A2, UniProt P03420 26-574). Nature of the assay: cell-based or functional assay.
Assay [1] addresses RSV postfusion F (postF), F ΔFP (Respiratory syncytial virus, UniProt P03420 26-513). Nature of the assay: BLI, IgG on anti-human IgG sensor, 100 nM antigen. On the technique in general: Biolayer interferometry detects binding as a change in optical thickness at a sensor tip.
Assay [2] concerns the target RSV prefusion F (preF), DS-Cav1 (Respiratory syncytial virus, UniProt P03420 26-513). In words: BLI, IgG on anti-human IgG sensor, 100 nM antigen.

B1: ADI-41602 (antibody, V domains shown)
VH: EVQLQESGPGLVKPSETLSLTCTVSGGSLSGYYWSWIRQPPGKGLEWIGYIYHSGSTNYNPSLESRVTISVDTSKNQFSLKVNAVTAADTAVYYCAKVERLLRFDPWGQGTLVTVSS
VL: QSVLIQPASVSGSPGQSITISCIGSSSDVGGYNYVSWYQHYPGKAPKLMIYDVSNRPSGVSNRFSGSKSGNTASLTISGLQAEDEADYYCSSYTSSTSYVFGTGTKVTVL
notes: also called Ab 876; Antibody Number 876
As to B1, in the assay with RSV F on RSV-A2 virus, the “Neutralization IC50 (RSV subtype A)” value is more than 25 µg/mL. For the same molecule, the equilibrium dissociation constant (Kd) – broadly, a measure of binding affinity in units of concentration – in assay [1] was found to be 0.455 nM; in assay [2], 2.85 nM.

B2: ADI-41605 (antibody, V domains shown)
VH: QVQLVESGPGLVKPSQTLSLTCSVSGGSISSDDHYWSWIRQHPGKGLEWIGYIYYSGYTNYNPSLKSRVTISVDTSKNQFSLRLSSVTAADTAVYYCARETDITIFGVVPVGYFDYWGQGTLVTVSS
VL: DIQVTQSPDSLAVSLGERATINCKSSQSILSSTNNKNFLAWYQQKPGQPPKLLLHWASTREFGVPDRFSGSGSGTEFTLTISSLQAEDVAVYYCQQYYTTPYTFGQGTKVEIK
notes: also called Ab 879; Antibody Number 879
Consider B2, for which the “Neutralization IC50 (RSV subtype A)” value in the assay with RSV F on RSV-A2 virus is more than 25 µg/mL. The equilibrium dissociation constant (Kd) in assay [1] stood at 0.55 nM; in assay [2], 3.18 nM.

B3: ADI-41596 (antibody, V domains shown)
VH: QVQLQQWGAGLLKPSETLSLTCAVYGDSFSGYFWTWIRQPPGKGLEWIGEINLSGSTNYNPSLKSRVTILVDTSKNQFSLKLSSVTAADTAVYYCARGLHVSDDQDSSGYYFHPGSFDYWGQGTLVTVSS
VL: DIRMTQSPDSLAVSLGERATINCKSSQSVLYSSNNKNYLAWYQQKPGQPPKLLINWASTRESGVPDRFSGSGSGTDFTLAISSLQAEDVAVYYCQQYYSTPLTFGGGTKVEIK
notes: also called Ab 870; Antibody Number 870
For the molecule B3, in the assay with RSV F on RSV-A2 virus, the “Neutralization IC50 (RSV subtype A)” value was 0.0537 µg/mL. The figures for the equilibrium dissociation constant (Kd) in assay [1] and in assay [2] were 0.437 nM and 0.305 nM, respectively.

B4: ADI-41603 (antibody, V domains shown)
VH: EVQLVESGGGLVKPGRSLRLSCTTSGFTFGDYAMSWFRQAPGKGLEWVGFIRSKPYGGATAYAASVRGRFTISNDDSKSIAYLQMESLKIEDTAVYYCARDYDDFFFYDYWGQGTLVTVSS
VL: DIRMTQSPATLSVSPGERATLSCRASENIYSNLAWYQQKPGQAPRLLIYGASTRATGLPARFSGSGSGTEFTLTISSLQSEDFAVYYCQQYNNWPAFGGGTKVEIK
notes: also called Ab 877; Antibody Number 877
For B4, in the assay with RSV F on RSV-A2 virus, the “Neutralization IC50 (RSV subtype A)” value is more than 25 µg/mL. Besides, the Kd was 0.49 nM in assay [1] and 3.49 nM in assay [2].

B5: ADI-41606 (antibody, V domains shown)
VH: EVQLLESGPGLVKPSETLSLTCTVSGGSVSSGGYYYTWIRQPPGKGLEWIGYAFYSGDTNYNPSLKSRVTISVDTSKNQFSLKLTSVTAADTAVYYCASTYTFGASGFDFWGQGTLVTVSS
VL: DIVMTQSPSFMSASVGDRVTITCRASQGISNWLLWYQQKPGKAPKLLIYAASSLQSGVPSRFSGSRSGTDFTLTISSLQPEDFAIYYCQQANSFPLTFGQGTRLEIK
notes: also called Ab 880; Antibody Number 880
As for B5, the “Neutralization IC50 (RSV subtype A)” value with RSV F on RSV-A2 virus was more than 25 µg/mL. For the same molecule, the Kd in assay [1] is 1.03 nM; in assay [2], 3.39 nM.

B6: ADI-41604 (antibody, V domains shown)
VH: QVTLKESGAEVKKPGASVKVSCKASGYTFTGYYMHWVRQAPGQGLEWMGRINPNSGGTNYAQKFQGRVTMTRDTSISTAYMELSRLRSDDTAVYYCAREASRFGGFDYWGQGTLVTVSS
VL: DIVLTQSPSSLSASVGDRVTITCQASQDISNYLNWYQQKPGKAPKLLIYDASNLETGVPSRFSGSGSGTDFTFTISSLQPEDIATYYCQQYDNLLGYTFGQGTKVEIK
Turning to B6, the “Neutralization IC50 (RSV subtype A)” value in the assay with RSV F on RSV-A2 virus was more than 25 µg/mL. For the same molecule, the values for the Kd in assay [1] and in assay [2] were 29.2 nM and 17.8 nM, respectively.

B7: ADI-41600 (antibody, V domains shown)
VH: EVQLLESGGNMVQPGKSLRLSCAASGFTFSNYGMHWVRQAPGKGLEWVAVISKDGNNEHYADSVRARFTVSRDNSKNTLFLQMNSLRPEDTAVYYCAIGGLSGSYFGEYFQHWGRGTLVTVSS
VL: DIQMTQSPSSMSASLGDRVTITCRASQGISTWLAWYQQKPGEAPKLLIYAAFGLQSGVPSRFSGSGSGTDFTLTINNLQPEDFATYYCQQAISFPFTFGGGTKVEIK
notes: also called Ab 874; Antibody Number 874
On to B7, for which the “Neutralization IC50 (RSV subtype A)” value in the assay with RSV F on RSV-A2 virus was more than 25 µg/mL. For the same molecule, the figures for the equilibrium dissociation constant (Kd) in assay [1] and in assay [2] were 0.755 nM and 4.93 nM, respectively.
